Laboratory results taken from publication PMC11266248, “Production, purification, and quality assessment of borrelial proteins CspZ from Borrelia burgdorferi and FhbA from Borrelia hermsii” (Applied Microbiology and Biotechnology, 2024).

Biological target: T1, purified human complement factor H from human plasma/serum (human, UniProt P08603 19-1231)
T1 construct: human complement factor H, serum glycoprotein of 20 SCR domains (NCBI gene number 3075); also called FH; Human purified FH; source: bought: Sigma/Merck C5813 (batch SLCP3577), purified from human plasma; provided by Prof; Clark
T1 sequence (P08603 19-1231): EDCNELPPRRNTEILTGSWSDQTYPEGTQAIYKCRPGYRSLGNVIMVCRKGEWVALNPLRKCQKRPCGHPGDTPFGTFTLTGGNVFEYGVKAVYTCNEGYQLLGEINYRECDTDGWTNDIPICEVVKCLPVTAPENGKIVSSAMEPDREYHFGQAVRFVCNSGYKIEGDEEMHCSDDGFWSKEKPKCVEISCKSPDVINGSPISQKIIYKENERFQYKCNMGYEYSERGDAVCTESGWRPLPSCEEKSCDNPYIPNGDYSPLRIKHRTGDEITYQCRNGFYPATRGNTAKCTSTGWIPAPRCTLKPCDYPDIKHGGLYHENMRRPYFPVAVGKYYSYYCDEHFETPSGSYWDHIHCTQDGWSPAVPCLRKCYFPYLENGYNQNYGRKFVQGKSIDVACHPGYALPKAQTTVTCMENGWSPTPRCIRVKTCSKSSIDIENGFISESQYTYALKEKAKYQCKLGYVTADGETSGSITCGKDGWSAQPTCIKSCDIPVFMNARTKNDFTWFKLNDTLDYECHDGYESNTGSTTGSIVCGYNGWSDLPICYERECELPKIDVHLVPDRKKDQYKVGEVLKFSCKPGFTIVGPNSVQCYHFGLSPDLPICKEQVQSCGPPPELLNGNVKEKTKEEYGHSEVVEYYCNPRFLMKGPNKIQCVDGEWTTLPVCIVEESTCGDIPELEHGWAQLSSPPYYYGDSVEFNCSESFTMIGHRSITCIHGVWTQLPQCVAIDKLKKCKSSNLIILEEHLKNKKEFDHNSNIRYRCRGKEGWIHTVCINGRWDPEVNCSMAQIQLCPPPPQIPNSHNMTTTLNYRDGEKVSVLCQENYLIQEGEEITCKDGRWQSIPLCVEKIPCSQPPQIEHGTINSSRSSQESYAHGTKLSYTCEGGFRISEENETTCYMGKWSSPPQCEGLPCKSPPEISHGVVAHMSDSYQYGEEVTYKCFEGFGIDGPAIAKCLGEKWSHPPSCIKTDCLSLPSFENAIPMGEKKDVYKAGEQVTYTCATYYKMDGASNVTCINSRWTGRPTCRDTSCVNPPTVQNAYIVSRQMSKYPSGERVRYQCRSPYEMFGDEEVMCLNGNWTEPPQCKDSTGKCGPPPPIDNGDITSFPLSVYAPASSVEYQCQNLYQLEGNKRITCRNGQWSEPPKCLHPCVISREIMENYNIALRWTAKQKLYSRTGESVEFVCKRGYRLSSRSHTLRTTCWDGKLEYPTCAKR
Test: SPR; Biacore T100, CM5 chip; FH (750 RU), rFHL-1 or rFH15-20 (200 RU) amine-coupled as ligands; CspZ or FhbA as analytes; PBS with 0.05% Tween20, 25 °C, 30 µl/min; single-cycle and multiple-cycle kinetics, Langmuir 1:1 model; in duplicate
Conditions: both partners purified

B1: CspZ from Borrelia burgdorferi sensu stricto (complement regulator-acquiring surface protein 2) (natural protein)
chain: DVSRLNQRNINELKIFVEKAKYYSIKLDAIYNECTGAYNDIMTYSEGTFSDQSKVNQAISIFKKDNKIVNKFKELEKIIEEYKPMFLSKLIDDFAIELDQAVDNDVSNARHVADSYKKLRKSVVLAYIESFDVISSKFVDSKFVEASKKFVNKAKEFVEENDLIALECIVKTIGDMVNDREINSRSRYNNFYKKEADFLGAAVELEGAYKAIKQTLL
notes: CspZ (BbCRASP-2/BBH06), surface lipoprotein of Borrelia burgdorferi sensu stricto (NCBI txid139), encoded by cspZ on lp28-3; theoretical mass of the tagged protein 27.5 kDa, measured mass fits the predicted value without the N-terminal methionine; Two plasmids coding for N-terminally His6-tagged CspZ are named (pET-45(+) from Prof. Marconi, pETM-11 from Dr. Brangulis); also called BbCRASP-2; …
**Q.** For B1, which Kd is on record?
**A.** 0.209 ± 0.141 nM

**Q.** What about the koff of the same binder?
**A.** 5.31e-05 s⁻¹

**Q.** And the kon?
**A.** 255000 M⁻¹ s⁻¹
